The values below come from US20120164670A1, “METHODS AND KITS FOR MEASURING ENZYME ACTIVITY” (President and Fellows of Harvard College, priority 2009, published 2012).

Substrate in this data set: CC(=O)NCCCC[C@H](NC(=O)[C@H](CCCNC(=N)N)NC(=O)[C@H](C)NC(=O)[C@@H](N)[C@@H](C)O)C(=O)N[C@@H](CO)C(=O)N[C@H](C(=O)NCC(=O)O)[C@@H](C)O
Briefly: Sirtuin assay kit (PNC1-OPT) with hSIRT1 enzyme. It counts as biochemical, human. Conditions: other: kit protocol, Experiment 2 mastermix; pH 8.0; 37.0 °C. The protocol: Kit contents are generally stored at −20° C. Modifications or variations in volumes or amounts of components described below are compatible with kits and assays described herein. • 1) Assay Buffer: 2 tubes with 1 mL each of 10× Assay Buffer. Dilute to 1× with ddH20 prior to use. • 2) Non-tagged Peptide Substrate: 1 tube with 140 uL of 5 mM H3K9ac substrate (TARK(ac)STG)) (SEQ ID NO:23). This is a sample substrate only; any substrate may be used in this assay. • 3) β-NAD: a) 1 tube with 450 uL of 10 mM B-NAD, and b) 1 tube with 50 uL of 100 mM B-NAD. In some instances, it is preferable to keep β-NAD in concentrated aliquot form, and dilute it prior to use. • 4) hSIRT1 Enzyme: 1 tube with 400 uL of 1.1 ug/uL full-length human SIRT1 enzyme. • 5) yPNC1 Enzyme: 1 tube with 200 uL of 2 ug/uL yeast PNC1 enzyme • 6) Developing Reagent: 2 vials with 10 mL each 1× Developer (10 mM OPT/10 mM DTT in 100% EtOH). Minimize exposure to light as outlined in the procedure. […]
In some instances, when adding the OPT Developer it is advisable to work in a dark or dimly lit setting. […] Once covered, ambient lighting may be restored. • d) Read the samples. Samples may be transferred to a 96-well plate for reading (do this under dim light). Read the fluorescence on a fluorometer with filters set to excitation ˜420 nm, and emission ˜460 nm. […]

B1: full-length human SIRT1 enzyme (Homo sapiens) (protein)
chain: MADEAALALQPGGSPSAAGADREAASSPAGEPLRKRPRRDGPGLERSPGEPGGAAPEREVPAAARGCPGAAAAALWREAEAEAAAAGGEQEAQATAAAGEGDNGPGLQGPSREPPLADNLYDEDDDDEGEEEEEAAAAAIGYRDNLLFGDEIITNGFHSCESDEEDRASHASSSDWTPRPRIGPYTFVQQHLMIGTDPRTILKDLLPETIPPPELDDMTLWQIVINILSEPPKRKKRKDINTIEDAVKLLQECKKIIVLTGAGVSVSCGIPDFRSRDGIYARLAVDFPDLPDPQAMFDIEYFRKDPRPFFKFAKEIYPGQFQPSLCHKFIALSDKEGKLLRNYTQNIDTLEQVAGIQRIIQCHGSFATASCLICKYKVDCEAVRGDIFNQVVPRCPRCPADEPLAIMKPEIVFFGENLPEQFHRAMKYDKDEVDLLIVIGSSLKVRPVALIPSSIPHEVPQILINREPLPHLHFDVELLGDCDVIINELCHRLGGEYAKLCCNPVKLSEITEKPPRTQKELAYLSELPPTPLHVSEDSSSPERTSPPDSSVIVTLLDQAAKSNDDLDVSESKGCMEEKPQEVQTSRNVESIAEQMENPDLKNVGSSTGEKNERTSVAGTVRKCWPNRVAKEQISRRLDGNQYLFLPPNRYIFHGAEVYSDSEDDVLSSSSCGSNSDSGTCQSPSLEEPMEDESEIEEFYNGLEDEPDVPERAGGAGFGTDGDDQEAINEAISVKQEVTDMNYPSNKS
notes: 1.1 ug/uL full-length human SIRT1 enzyme
A word on the Km: it is the substrate concentration at which the rate is half of its maximum. With B1, the Km came out at 50 µM.
